Experimental data reported in patent publication US20110287936A1, “GENE SWITCH COMPOSITIONS AND METHODS OF USE” (priority 2010, published 2011).

How the values were obtained:
[1] = test system: RLuc reporter; experiment: Agrobacterium transient luciferase assay of promoters with and without tet operators; format: in vivo, Nicotiana benthamiana; settings: relative light units
Experimental: The activity of unmodified and designed MMV, dMMV, and EF1A2 promoters were evaluated using the characterized 35SCaMV (SEQ ID NO:861) and 35SCaMV::tetOP (SEQ ID NO:862) promoters as controls. Promoter activity was analyzed via Agrobacterium-mediated transient expression analysis in Nicotiana benthamiana leaves. N. benthamiana leaves were infected with luciferase reporter constructs controlled by either the modified or unmodified promoters. Test constructs were identical except for the promoter sequence (Pro) being tested. Test constructs comprised the following operably linked components: • RB-Pro-RLuc-UBQ3-EF1A-NptII-EF1A3′-LB
Relative light units were quantified for modified and unmodified promoters (FIG. 3), and promoter activity for the modified version determined as the percent of unmodified promoter activity (ProOp/Pro). […] In this assay, 35S:tetOp had about 25% of the activity as 35S promoter, EF1A2:tetOp had about 30% of the activity of EF1A2 promoter, MMV:tetOp had about 60% of the activity of MMV promoter, and dMMV:tetOp had about 50% of the activity of dMMV promoter.

[2] = test system: operator; experiment: Biacore SPR operator binding characterization of repressors
Text: Select SU repressors were further characterized for operator and ligand binding, affinity and dissociation kinetics using Biacore™ SPR technology (Biacore, GE Healthcare, USA). The technology is based on surface plasmon resonance (SPR), an optical phenomenon that enables detection of unlabeled interactants in real time. The SPR-based biosensors can be used in determination of active concentration, screening and characterization in terms of both affinity and kinetics.
The kinetics of an interaction, i.e., the rates of complex formation (ka) and dissociation (kd), can be determined from the information in a sensorgram. If binding occurs as sample passes over a prepared sensor surface, the response in the sensorgram increases. If equilibrium is reached, a constant signal is seen. Replacing the sample with buffer causes the bound molecules to dissociate and the response decreases. Biacore evaluation software generates the values of ka and kd by fitting the data to interaction models.
The affinity of an interaction is determined from the level of binding at equilibrium (seen as a constant signal) as a function of sample concentration. Affinity can also be determined from kinetic measurements. For a simple 1:1 interaction, the equilibrium constant KD is the ratio of the kinetic rate constants, kd/ka.
A. Operator Binding Characterization of Repressors

[3] = test system: 35S::tetO-Renilla Luciferase reporter; experiment: Nicotiana benthamiana leaf infiltration assay, repression and derepression; format: in vivo; settings: inducer concentration as low as 0.02 ppm Es

Molecule | promoter activity as percent of unmodified promoter activity (ProOp/Pro) [1] | ka [2] [M⁻¹ s⁻¹] | induction of repressor [3]
35S:tetOp: 35SCaMV promoter with tet operators, SEQ ID NO:862, control (nucleic acid, 35SCaMV promoter engineered with tet operators) DNA: GAAAATCTTCGTCAACATGGTGGAGCACGACACGCTTGTCTACTCCAAAAATATCAAAGATACAGTCTCAGAAGACCAAAGGGCAATTGAGACTTTTCAACAAAGGGTAATATCCGGAAACCTCCTCGGATTCCATTGCCCAGCTATCTGTCACTTTATTGTGAAGATAGTGGAAAAGGAAGGTGGCTCCTACAAATGCCATCATTGCGATAAAGGAAAGGCCATCGTTGAAGATGCCTCTGCCGACAGTGGTCCCAAAGATGGACCCCCACCCACGAGGAGCATCGTGGAAAAAGAAGACGTTCCAACCACGTCTTCAAAGCAAGTGGATTGATGTGATATCTCCACTGACGTAAGGGATGACGCACAATCCCACTAGACTCTATCAGTGATAGAGTGTATATAAGACTCTATCAGTGATAGAGTGAACTCTATCAGTGATAGAGTTGTACTTATTTTTACAACAATTACCAACAACAACAAACAACAAACAACATTACAATTACTATTTACAATTACAGTCGACGGATCAAGTGCAAAGGTCCGCCTTGTTTCTCCTCTGTCTCTTGATCTGACTAATCTTGGTTTATGATTCGTTGAGTAATTTTGGGGAAAGCTTCGTCCACAGTTTTTTTTTCGATGAACAGTGCCGCAGTGGCGCTGATCTTGTATGCTATCCTGCAATCGTGGTGAACTTATTTCTTTTATATCCTTCACTCCCATGAAAAGGCTAGTAATCTTTCTCGATGTAACATCGTCCAGCACTGCTATTACCGTGTGGTCCATCCGACAGTCTGGCTGAACACATCATACGATATTGAGCAAAGATCGATCTATCTTCCCTGTTCTTTAATGAAAGACGTCATTTTCATCAGTATGATCTAAGAATGTTGCAACTTGCAAGGAGGCGTTTCTTTCTTTGAATTTAACTAACTCGTTGAGTGGCCCTGTTTCTCGGACGTAAGGCCTTTGCTGCTCCACACATGTCCATTCGAATTTTACCGTGTTTAGCAAGGGCGAAAAGTTTGCATCTTGATGATTTAGCTTGACTATGCGATTGCTTTCCTGGACCCGTGCAGCTGCGGACGGATCC | about 25% | – | –
dMMV:tetOp: double enhancer MMV promoter with three tet operators, SEQ ID NO:858 (nucleic acid, dMMV promoter engineered with tet operators) DNA: AAACCAATTCGTCAACTTCGTCCACAGACATCAACATCTTATCGTCCTTTGAAGATAAGATAATAATGTTGAAGATAAGAGTGGGAGCCCCCACTAAAACATTGCTTTGTCAAAAGCTAAAAAAGATGATGCCCGACAGCCACTTGTGTGAAGCATGAGAAGCCGGTCCCTCCACTAAGAAAATTAGTGAAGCATCTTCCAGTGGTCCCTCCACTCACAGCTCAATCAGTGAGCAACAGGACGAAGGAAATGACGTAAGCCATGACGTCTAATCCCAACTTCGTCCACAGACATCAACATCTTATCGTCCTTTGAAGATAAGATAATAATGTTGAAGATAAGAGTGGGAGCCACCACTAAAACATTGCTTTGTCAAAAGCTAAAAAAGATGATGCCCGACAGCCACTTGTGTGAAGCATGAGAAGCCGGTCCCTCCACTAAGAAAATTAGTGAAGCATCTTCCAGTGGTCCCTCCACTCACAGCTCAATCAGTGAGCAACAGGACGAAGGAAATGACGTAAGCCATGACGTCTAATCCCACACTCTATCAGTGATAGAGTTTATATAAGACTCTATCAGTGATAGAGTGAACTCTATCAGTGATAGAGTGAGATCAATCGAAATCAAAATCGGAATCGAAATCAAAATCGGAATCGAAATCTCTCATCTAAGAGCTCAAAAAAAAAAAAAACC | about 50% | – | –
L7-3E03-D1: ethametsulfuron repressor (EsR), SEQ ID NO:411 (protein, Sulfonylurea responsive repressor L7-3E3-D1) MARLDKSKVINSALELLNEVGIEGLTTRKLAQKLGVEQPTLYWHVKNKRALLDAMAIEMLDRHATHYCPLEGESWQDFLRNNAKSMRCALLSHRDGAKVCLGTGFTEQQYETAENSLAFLCQQGFSLEHAMYAMQAAGIYTLGCVLLDQELQVAKEERETPTTDSMPPLVRQALELKDHQGAEPAFLFGLELIICGLEKQLKCESGS | – | 55000 | significant but incomplete induction
L7-1G06-B2: ethametsulfuron repressor (EsR), SEQ ID NO:410 (protein, Sulfonylurea responsive repressor L7-1G6-B2) MARLDKSKVINSALELLNEVGIEGLTTRKLAQKLGVEQPTLYWHVKNKRALLDAMAIEMLDRHATHYCPLEGESWQDFLRNNAKSMRCALLSHRDGAKVCLGTGFTEQQYETAENSMAFLCQQGFSLENALYAMQAVGIYTLGCVLLDQELQVAKEERETPTTDSMPPLVRQALELKDHQGAEPAFLFGLELIICGLEKQLKCESGS | – | 46000 | –
L7-1F08-A11: ethametsulfuron repressor protein, SEQ ID NO:409 (protein, Sulfonylurea responsive repressor L7-1F8-A11) MARLDKSKVINSALELLNEVGIEGLTTRKLAQKLGVEQPTLYWHVKNKRALLDAMAIEMLDRHATHYCPLEGESWQDFLRNNAKSMRCALLSHRDGAKVCLGTGFTEQQYETAENSLAFLCQQGFSLENALYAMQAVGIYTLGCVLLDQELQVAKEERETPTTDSMPPLVRQALELKDHQGAEPAFLFGLELIICGLEKQLKCESGS | – | 71000 | –
L7-1C03-A5: ethametsulfuron repressor (EsR), SEQ ID NO:408 (protein, Sulfonylurea responsive repressor L7-1C3-A5) MARLDKSKVINSALELLNEVGIEGLTTRKLAQKLGVEQPTLYWHVKNKRALLDAMAIEMLDRHATHVCPLEGESWQDFLRNNAKIMRCALLSHRDGAKVCLGTGFTEQQYETAENSLAFLCQQGFSLEHALYAMQAAGIFTLGCVLLDQELQVAKEERETPTTDSMPPLVRQALELNDHQGAEPAFLFGLELIICGLEKQLKCESGS | – | 47000 | –
MMV:tetOp: Mirabilis mosaic virus promoter with three tet operators, SEQ ID NO:857 (nucleic acid, MMV promoter engineered with tet operators) DNA: TTCGTCCACAGACATCAACATCTTATCGTCCTTTGAAGATAAGATAATAATGTTGAAGATAAGAGTGGGAGCCACCACTAAAACATTGCTTTGTCAAAAGCTAAAAAAGATGATGCCCGACAGCCACTTGTGTGAAGCATGAGAAGCCGGTCCCTCCACTAAGAAAATTAGTGAAGCATCTTCCAGTGGTCCCTCCACTCACAGCTCAATCAGTGAGCAACAGGACGAAGGAAATGACGTAAGCCATGACGTCTAATCCCACACTCTATCAGTGATAGAGTTTATATAAGACTCTATCAGTGATAGAGTGAACTCTATCAGTGATAGAGTGAGATCAATCGAAATCAAAATCGGAATCGAAATCAAAATCGGAATCGAAATCTCTCATCTAAGAGCTCAAAAAAAAAAAAAACC | about 60% | – | –
